In the DeepSol protein solubility set:

Assay: soluble on expression in E. coli; label from the status in PepcDB or PDB records

Row | Sequence | soluble on expression in E. coli
1 | MGSDKIHHHHHHVERIETHDATPGVVVEALTRGPGAICIRGLFSESQIAEARRVVMAHSEDRAQTVTHFQGQAAEEQRLHLQRRVWNLLAKGGVFSEMSEQPVIVGAMRRFLGDDFIMGSIAANRILPGGPGQEPHIDYPYWDYHMPDTFPLGINTSFALNAQVTIPLDPFTAETGATAFVPHTQHELRYPAEGDRFFERCQRMTAEPGDAIVFFGATWHCAMPNRSTQDRSAVLIQYLPKFVKPMEDLRAMVGEDFVRRASPTMRQLLGLNFPYPQNLDEIAVATNAEGRKNAMR | not soluble
2 | MSKVIQKKNHWTSRVHECTVKRGPQGELGLTVLGGAEHGEFPYVGAVAAVEAAGLPGGGEGPRLGEGELLLEVQGVRVSGLPRYDVLGVIDSCKEAVTFKAVRQGGRLNKDLRHFLNQRFQKGSPDHELQQTIRDNLYRHAVPCTTRSPREGEVPGVDYNFLTVKEFLDLEQSGTLLEVGTYEGNYYGTPKPPSQPVSGKVITTDALHSLQSGSKQSTPKRTKSYNDMQNAGIVHAENEEEDDVPEMNSSFTADSGEQEEHTLQETALPPVNSSIIAAPITDPSQKFPQYLPLSAEDNLGPLPENWEMAYTENGEVYFIDHNTKTTSWLDPRCLNKQQKPLEECEDDEGVHTEELDSELELPAGWEKIEDPVYGIYYVDHINRKTQYENPVLEAKRKKQLEQQQQQQQQQQQQQQQQQQQQQTEEWTEDHSALVPPVIPNHPPSNPEPAREVPLQGKPFFTRNPSELKGKFIHTKLRKSSRGFGFTVVGGDEPDEFLQIKSLVLDGPAALDGKMETGDVIVSVNDTCVLGHTHAQVVKIFQSIPIGASVDLELCRGYPLPFDPDDPNTSLVTSVAILDKEPIIVNGQETYDSPASHSSKTGKVNGMKDARPSSPADVASNSSHGYPNDTVSLASSIATQPELITVHIVKGPMGFGFTIADSPGGGGQRVKQIVDSPRCRGLKEGDLIVEVNKKNVQALTHNQVVDMLVECPKGSEVTLLVQRGGLPVPKKSPKSQPLERKDSQNSSQHSVSSHRSLHTASPSHSTQVLPEFPPAEAQAPDQTDSSGQKKPDPFKIWAQSRSMYENRPMSPSPASGLSKGEREREINSTNFGECPIPDYQEQDIFLWRKETGFGFRILGGNEPGEPIYIGHIVPLGAADTDGRLRSGDELICVDGTPVIGKSHQLVVQLMQQAAKQGHVNLTVRRKVVFAVPKTENEVPSPASSHHSSNQPASLTEEKRTPQGSQNSLNTVSSGSGSTSGIGSGGGGGSGVVSTVVQPYDVEIRRGENEGFGFVIVSSVSRPEAGTTFGNACVAMPHKIGRIIEGSPADRCGKLKVGDRILAVNGCSITNKSHSDIVNLIKEAGNTVTLRIIPGDESSNATLLTNAEKIATITTTHTPSQQGTQETRNTTKPKQESQFEFKAPQATQEQDFYTVELERGAKGFGFSLRGGREYNMDLYVLRLAEDGPAERCGKMRIGDEILEINGETTKNMKHSRAIELIKNGGRRVRLFLKRGDGSVPEYAM | soluble
3 | MGSDKIHHHHHHMWAYESVFYQIYPLGFCGAPFENDGVLEHRILKVNDWIPHIKKLGADAIYFSPVFESDTHGYNTRDYTKIDTRLGTNEDFAQVCDNLHKDGIKVVLDGVFNHVGRGFWAFQDVLKNRESSPYVNWFGRIAFDGNSNYNDGLWYEGWEGNYDLVKLNLRNEDVIQHIFSAIKGWVDEFDIDGLRLDVAYCLDHDFLRRLREFCDSLKPDFFLVGETLHGDYNQIMNDAMLHSVTNYECYKGLYSSFNSMNMFEINHSLLRQFGPEQWTLYKGKHLLSFVDNHDVTRVASILTNEKHLPLIYALAFGMPGIPCVYYGSEWGEKAKKEDGDPALRACFEAPQCNELTEWISKLAEAKKQSKALCYGNFYSVVLTNGQCVFGRECDGEKVFVCINAADQPFFAGFDMGKGDATDLITGEQVTLNGGLELPPYSAYFLR | not soluble
4 | MSQFISLTQYQLIEVQGADAEKYLQGQLTSDVVRLASGATTLTAHCDPKGKMNAIYRLFKVSSEQFFLLVKKDILPSGLDALKKYAVFSKVSFDLRDWQIIGVIGEKCGKITPNFSLEIDEKRSILLNETELPVNFNGDEKIWEVADIQAGLPNLSPQTQNEFIPQALNLQAIEQAISFTKGCYIGQETVARAKYRGANKRAMFIFKVQTQQEAEIGSEIEMQLEANWRKTGTITSAVNLDGVLWLQVVMNNDIDSEQQFRLLNSEILLERVQLPYSITE | not soluble
5 | MEMKQKLLTDIELDVHELKLLMNTFSKEPTQTLSELLKRSILRMQERLEQLSEEISAVPVEASPSPVAEAESEAPIVEEQAPVIEEVECPVIEEKVVEENEATAPGEDEPVIVQEPQTVVEEAVIEEPVVEDEMEEKEAEDESEDDESLLIEEPKTAVLGESIKMAAGLRHSISLNDSFRFSREIFGGDPELMNRVIEQISVMSSYKTAVAFLASKVSVNEENEAMIDFLELLKKYFNQSA | soluble
6 | MSLSTLQDLEKTLWATADKMRANMDPAEYKHIVLGLIFLKYISDSFAGRRAELERKFSDAGDDYYLGGDDPTYLASELEERDYYKEVNVFWVPEPARWESLRAAAKQVDIGKRIDDALADIEAENPQLKNILDKRYARAQLPDGKLGELVDMISIIGFSSDANKARDLLGQVYEYFLGQFASAEGKRGGQFYTPASIVKTLVAVLNPHHGKVYDPCCGSGGMFVQSEKFIEAHGGKLGDVSIYGQESNPTTWRLAAMNLAIRGMDFNLGKEPADSFIRNQHSDLRADFVLANPPFNISDWWHGSLDGDSRWVYGTPPQGNANYAWLQHMLFHLKSSGRAGIVLANGSMSSSQNSEGDIRRAMVEADVVEVMVALPGQLFFNTQIPACLWFLAKQKNKRPGEVLFIDARKLGTNISRVQIELLDSDIESIAQTVANWRGVPLEVDGEIAEYADVAGFCRSVPLAEIAEHGHVLTPGRYVGAEAVEDDDEAFADKMQDLTALLGEQLAKGTELDQLIRHKLGGLGYEEGHHHHHH | soluble
7 | MTGSTAGKVLVVGALGVVGRAALEHFGQRPGLARVGLSRRAPDFAPEATWISADLRDAQATRAALAAHGDATHVVYAALNEQPDLLKGWRDSGNVDLNTRMLRNTLDALREAPLRHVTLLQGTKAYGVHTGRPMPVPARETDAVRDHANFYFDQQDLLAERAAAQGFAWTIFRPQIVLGVALGSAMNPVATLGAYAALSREAGQPLRYPGHPHLLTECTDARLIARAIAWAWDEPRAHGEAFNIANGDVVLWQPVFERLAALFGMPLGEPVDTRMREAMPEQAERWRAIAERERLAVPQLRDLIGLSWQYADATWAARHPLPVPPLVSTIKLRQAGFGDCIDTQECIVEHLREMQRLRYLPRLEHHHHHH | not soluble
8 | MRAGIYRRSAGQGAEEKPEAVRAGHRGGGERHHDHAHHDGEGEFVVREELLHGRSVRFRRRSERIDEHEHRQRDRGHAQPGADRGAPGRQRATTGDNVCDGTPGSPHRRVRRRRPAPAA | not soluble
9 | MGSDKIHHHHHHNLKDSDRIFTNLYGRHDYRLKGAMARGDWHKTKEIILKGSDWILGELKTSGLRGRGGAGFPSGMKWGFMNKPFDGRPKYLVVNADEGEPGTCKDREIMRHDPHKLIEGCLIGGVAMGARAAYIYIRGEFYNEACILQEAINEAYKAGYLGKDCLGTGYNFDVFVHRGAGAYICGEETALIESLEGKQGKPRLKPPFPADIGLFGCPTTVTNVETVAVAPTICRRGGDWFASFGRERNRGTKLFCISGQVNNPCTVEEEMSVPLKDLIERHCGGVIGGWDNLLAIIPGGSSVPLMPKN | not soluble
10 | MMKRALTGIQASGKQHLGNYLGVMQSLIELQEQCQLFVFVADLHSITVDFQPQALKQNNFDLVRTLLAVGLDPQKACLFLQSDLLEHSMMGYLMMVQSNLGELQRMTQFKAKKAEQTRNPNGTLNIPTGLLTYPALMAGDILLYQPDIVPVGNDQKQHLELTRDLAQRIQKKFKLKLRLPQFVQNKDTNRIMDLFDPTKKMSKSSKNQNGVIYLDDPKEVVVKKIRQATTDSFNKIRFAPKTQPGVTNMLTILKALLKEPVNQSLTNQLGNDLEAYFSTKSYLDLKNALTEATVNLLVNIQRKREQISREQVFNCLQAGKNQAQATARTTLALFYDGFGLGSQNIK | soluble
11 | MEKTVIGVVHLLPLPGSPEHTDLSAVIDKAVKDARAIEEGGADALILENYGDKPFLKEVGKETVAAMTVIACEVKRDVSIGLGINVLRNDAVAALAIAKAVNADFVRVNQLFFTSVSPEGILEGKAGEVMRYKKLVDCRAMIFADIAVKHAVHFASLEDYCLNAERSLADAVILTGKTTGGEVSLEELKYAKKTLKMPVLAGSGVNAENAARILKWCDGVIVGTYIKRGGLVDAERVRRIVRAAKGLEHHHHHH | not soluble
12 | GPGSMQTDFGDATTFSLRPDHKRKFRPNDIRPVVRSLLESRLENEVYKADEMQSISKEIADGVRDRIRSMELERYKIMVHCMIGEQRGQGLRAGCKMFWDSDTDDYFEEVYVTQHLFAVVTVFGLYQY | not soluble
